Source: paper PMC3623958, “Structural and Functional Role of INI1 and LEDGF in the HIV-1 Preintegration Complex”

Columns and labels:
[1] = molecular target: HIV-1 integrase (full length wild type) (HIV-1); test: cross-linking + other: High-Mass MALDI ToF mass spectrometry; purified IN/LEDGF/INI1-IBD complex (formed by dialysis, affinity chromatography and gel filtration) chemically cross-linked before mass spectrometry; linear mode
[2] = molecular target: HIV-1 integrase (full length wild type) (HIV-1)
[3] = molecular target: T1, HIV-1 integrase (IN);LEDGF/p75 (HIV-1;human?, UniProt P04585;O75475 1148-1435;1-530, |); test: competition (fluorescence anisotropy); excess over N1; 5 mM Mg2+; conditions: protein: recombinant;recombinant; tags: GST tag on the IN/LEDGF complex cleaved by P3C protease; chain copies: 4;2; blunt
[4] = molecular target: T2, HIV-1 integrase (IN);LEDGF/p75;INI1-IBD (HIV-1;human?;human?, UniProt P04585;O75475;Q12824 1148-1435;1-530;174-289, ||); test: as above; conditions: protein: recombinant;recombinant;recombinant; tags: GST tag on the IN/LEDGF complex cleaved by P3C protease; chain copies: 4;2;2; blunt
[5] = molecular target: T1, HIV-1 integrase (IN);LEDGF/p75; test: fluorescence anisotropy; 5 mM Mg2+; 2 DNA duplexes per complex assumed; conditions: protein: recombinant;recombinant; tags: GST tag on the IN/LEDGF complex cleaved by P3C protease; chain copies: 4;2; label: 5'-6FAM on strand 1; blunt
[6] = molecular target: T2, HIV-1 integrase (IN);LEDGF/p75;INI1-IBD; test: as above; conditions: protein: recombinant;recombinant;recombinant; tags: GST tag on the IN/LEDGF complex cleaved by P3C protease; chain copies: 4;2;2; label: 5'-6FAM on strand 1; blunt

Work on “HIV-1 integrase (full length wild type) (enzyme)” yielded a stoichiometry N [1] of 2.

“Lens Epithelium-Derived Growth Factor LEDGF/p75 (full length wild type) (from UniProt O75475 1-530) (natural protein)” showed a circular full site integration products counted by cloning in bacteria, IN/LEDGF complex against isolated IN, 0.1 to 12.5 µM in IN monomers [2] of 2 to 10 times.

B1: non-specific DNA 49 bp, unlabeled competitor (dsDNA)
DNA 1: AGTTAAGTGCTGAATTATGATAGTAATCAATATCTACTCCTAACCTCTT
DNA 2: AAGAGGTTAGGAGTAGATATTGATTACTATCATAATTCAGCACTTAACT
B1: no binding [3]; no binding [4].

B2: U5 vDNA 40 bp, 6FAM (dsDNA)
DNA 1: GACTACGGTTCAAGTCAGCGTGTGGAAAATCTCTAGCAGT
DNA 2: ACTGCTAGAGATTTTCCACACGCTGACTTGAACCGTAGTC
In the case of B2, the Kd [5] is reported as 10.6 ± 0.5 nM and the Kd [6] is reported as 35 ± 4 nM.
